From patent US20260242478A1 (published 2026)
Where no end group is shown, it is not given here.

B1: Phage-930 (Peptide-87 library clone, SEQ ID NO: 1246) (peptide)
peptide: YCEGHIAEYMQKCL
modifications: cysteine pairing not given here; also: displayed fused to phage pIII protein, fusion end and linker not given here
notes: Tested as clonal phage supernatant; not shown: fused to the pIII filament protein of the bacteriophage
B2: Phage-928 (Peptide-87 library clone, SEQ ID NO: 1244) (peptide)
peptide: YCDGHSAEYLLKCL
modifications: cysteine pairing not given here; also: displayed fused to phage pIII protein, fusion end and linker not given here
notes: as for B1
B3: Phage-925 (Peptide-87 library clone, SEQ ID NO: 1241) (peptide)
peptide: YCAGHAAEYMTKCL
modifications: cysteine pairing not given here; also: displayed fused to phage pIII protein, fusion end and linker not given here
notes: as for B1
B4: Phage-923 (Peptide-87 library clone, SEQ ID NO: 1239) (peptide)
peptide: YCEGHLAVYMEKCL
modifications: cysteine pairing not given here; also: displayed fused to phage pIII protein, fusion end and linker not given here
notes: as for B1
B5: Phage-922 (Peptide-87 library clone, SEQ ID NO: 1238) (peptide)
peptide: YCDGHSLLYLSKCL
modifications: cysteine pairing not given here; also: fused to phage pIII
notes: as for B1
B6: Phage-919 (Peptide-87 library clone, SEQ ID NO: 1235) (peptide)
peptide: YCDGHSREYMNKCL
modifications: cysteine pairing not given here; also: fused to phage pIII
notes: as for B1
B7: Phage-924 (Peptide-87 library clone, SEQ ID NO: 1240) (peptide)
peptide: YCEGHSLMYMWKCL
modifications: cysteine pairing not given here; also: displayed fused to phage pIII protein, fusion end and linker not given here
notes: as for B1
B8: Phage-929 (Peptide-87 library clone, SEQ ID NO: 1245) (peptide)
peptide: YCDGHGPQYIQKCL
modifications: cysteine pairing not given here; also: displayed fused to phage pIII protein, fusion end and linker not given here
notes: as for B1
B9: Phage-926 (Peptide-87 library clone, SEQ ID NO: 1242) (peptide)
peptide: YCDGHSVEYMEKCL
modifications: cysteine pairing not given here; also: displayed fused to phage pIII protein, fusion end and linker not given here
notes: as for B1
B10: Phage-921 (Peptide-87 library clone, SEQ ID NO: 1237) (peptide)
peptide: YCDGHSEVYMAKCL
modifications: cysteine pairing not given here; also: fused to phage pIII
notes: as for B1
B11: Phage-927 (Peptide-87 library clone, SEQ ID NO: 1243) (peptide)
peptide: YCDGHAQEYRLKCL
modifications: cysteine pairing not given here; also: displayed fused to phage pIII protein, fusion end and linker not given here
notes: as for B1
B12: Phage-920 (Peptide-87 library clone, SEQ ID NO: 1236) (peptide)
peptide: YCDGHDVEYMAKCL
modifications: cysteine pairing not given here; also: fused to phage pIII
notes: as for B1

Assays:
[1] = molecular target: T1, Anti-CD28 Fab (SEQ ID NOs: 696, 697); assay: phage ELISA; captured anti-CD28 Fab pre-incubated with CD28 antigen as competitor, anti-M13 HRP;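 note: crude clonal phage supernatants added without washing after CD28 pre-incubation, bound phage detected with HRP anti-M13 antibody, reference wells got blocking buffer lacking CD28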
T1 construct: Biotinylated and captured on neutravidin coated plates in the phage ELISA
T1 sequence (VH, as listed by the source, chain 1 of 2): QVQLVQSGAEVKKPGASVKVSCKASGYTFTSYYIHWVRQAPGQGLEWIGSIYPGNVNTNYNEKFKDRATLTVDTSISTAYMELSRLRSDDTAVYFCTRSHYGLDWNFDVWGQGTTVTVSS
T1 sequence (VL, as listed by the source, chain 2 of 2): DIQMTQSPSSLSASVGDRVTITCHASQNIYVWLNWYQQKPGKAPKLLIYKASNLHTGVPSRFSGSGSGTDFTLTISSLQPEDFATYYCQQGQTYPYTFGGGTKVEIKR
Description: (§1) After panning, phage infected bacteria were plated out and colonies picked into 96 well blocks. Clonal phage was then amplified and separated from bacterial cells via centrifugation.
(§2) Clonal phage were harvested as crude supematants and screened via standard ELISAs. […] Prior to the addition of clonal phage, wells were incubated with blocking buffer and CD28 antigen or blocking buffer alone. Without washing or aspirating, clonal phage supematants were then added to the wells and incubated for a short time. Wells were then washed followed by detection of bound phage using a horse radish conjugated anti-M13 antibody. Clonal phage of interest were then sent for sequence analysis.

[2] = molecular target: T1, Anti-CD28 Fab (SEQ ID NOs: 696, 697); assay: phage ELISA; biotinylated anti-CD28 Fab on neutravidin plate, clonal phage supernatant, anti-M13 HRP
[3] = molecular target: T2, Anti-CD28 Fab (SEQ ID NOs: 696, 697); assay: phage ELISA on captured anti-CD28 Fab; competitor: CD28 antigen pre-incubated on the Fab
T2 construct: In the phage ELISA the Fab was biotinylated and captured on neutravidin coated plates
T2 sequence (VH, as listed by the source, chain 1 of 2): as the sequence (VH, as listed by the source, chain 1 of 2) above
T2 sequence (VL, as listed by the source, chain 2 of 2): as the sequence (VL, as listed by the source, chain 2 of 2) above
Description: as §1, §2

[4] = molecular target: T2, Anti-CD28 Fab (SEQ ID NOs: 696, 697); assay: phage ELISA; clonal phage supernatant on biotinylated anti-CD28 Fab captured on neutravidin, anti-M13 HRP detection
Description: as §1, §2

[5] = molecular target: T3, Anti-CD28 Fab (SEQ ID NOs: 696, 697); assay: phage binding ELISA; Fab-coated wells pre-incubated with CD28 antigen as competitor, anti-M13 HRP detection;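 note: crude clonal phage supernatants from panned colonies added to wells after blocking buffer plus CD28 treatment, bound phage measured after a brief incubation and washing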
T3 construct: In the phage ELISA the Fab was biotinylated and captured on neutravidin coated plates
T3 sequence (VH, as listed by the source, chain 1 of 2): as the sequence (VH, as listed by the source, chain 1 of 2) above
T3 sequence (VL, as listed by the source, chain 2 of 2): as the sequence (VL, as listed by the source, chain 2 of 2) above
Description: as §1, §2

[6] = molecular target: T3, Anti-CD28 Fab (SEQ ID NOs: 696, 697); assay: phage binding ELISA; biotinylated anti-CD28 Fab on neutravidin plate, clonal phage supernatant, anti-M13 HRP detection
Description: as §1, §2

| Binder | Anti-CD28 Fab signal in the presence of CD28 (phage binding ELISA) [3] | Anti-CD28 Fab signal (phage binding ELISA) [4] | Anti-CD28 Fab signal in the presence of CD28 (phage binding ELISA) [5] | Anti-CD28 Fab signal (phage binding ELISA) [6] | other results |
| --- | --- | --- | --- | --- | --- |
| YCDGHSEAFMQKCL [Phage-945] | – | – | – | – | Phage binding ELISA, Anti-CD28 Fab signal in the presence of CD28 [1]: 0.07; Phage binding ELISA, Anti-CD28 Fab signal [2]: 1.63 |
| YCEGHSWVYMAKCL [Phage-943] | 0.07 | 1.63 | – | – | – |
| YCAGHAPEYMSKCL [Phage-939] | 0.05 | 1.63 | – | – | – |
| B1 | – | – | 0.13 | 1.64 | – |
| YCEGHLEQYMQKCL [Phage-942] | 0.06 | 1.63 | – | – | – |
| YCDGHAQEYMDKCL [Phage-950] | – | – | – | – | Phage binding ELISA, Anti-CD28 Fab signal in the presence of CD28 [1]: 0.08; Phage binding ELISA, Anti-CD28 Fab signal [2]: 1.62 |
| YCEGHSSEYMWKCL [Phage-940] | 0.09 | 1.63 | – | – | – |
| YCDGHSLEYIGKCL [Phage-944] | – | – | – | – | Phage binding ELISA, Anti-CD28 Fab signal in the presence of CD28 [1]: 0.06; Phage binding ELISA, Anti-CD28 Fab signal [2]: 1.63 |
| YCEGHAPQYIMKCL [Phage-951] | – | – | – | – | Phage binding ELISA, Anti-CD28 Fab signal in the presence of CD28 [1]: 0.06; Phage binding ELISA, Anti-CD28 Fab signal [2]: 1.62 |
| YCEGHSAQYMHKCL [Phage-931] | 0.06 | 1.64 | – | – | – |
| B2 | – | – | 0.07 | 1.65 | – |
| B3 | – | – | 0.07 | 1.65 | – |
| YCEGHMWEYMAKCL [Phage-935] | 0.13 | 1.64 | – | – | – |
| YCDGHLDVYRAKCL [Phage-941] | 0.09 | 1.63 | – | – | – |
| B4 | – | – | 0.12 | 1.65 | – |
| YCAGHLPEYMGKCL [Phage-946] | – | – | – | – | Phage binding ELISA, Anti-CD28 Fab signal in the presence of CD28 [1]: 0.07; Phage binding ELISA, Anti-CD28 Fab signal [2]: 1.63 |
| YCDGHLSEYMSKCL [Phage-948] | – | – | – | – | Phage binding ELISA, Anti-CD28 Fab signal in the presence of CD28 [1]: 0.06; Phage binding ELISA, Anti-CD28 Fab signal [2]: 1.62 |

| Binder | Anti-CD28 Fab signal in the presence of CD28 (phage binding ELISA) [3] | Anti-CD28 Fab signal (phage binding ELISA) [4] | Anti-CD28 Fab signal in the presence of CD28 (phage binding ELISA) [5] | Anti-CD28 Fab signal (phage binding ELISA) [6] | other results |
| --- | --- | --- | --- | --- | --- |
| YCAGHSLEYMQKCL [Phage-937] | 0.07 | 1.63 | – | – | – |
| B5 | – | – | 0.07 | 1.65 | – |
| B6 | – | – | 0.06 | 1.66 | – |
| B7 | – | – | 0.08 | 1.65 | – |
| B8 | – | – | 0.07 | 1.64 | – |
| YCDGHATEYMQKCL [Phage-934] | 0.1 | 1.64 | – | – | – |
| B9 | – | – | 0.09 | 1.65 | – |
| YCAGHVAEYMAKCL [Phage-933] | 0.06 | 1.64 | – | – | – |
| B10 | – | – | 0.06 | 1.66 | – |
| YCAGHLAIYMSKCL [Phage-947] | – | – | – | – | Phage binding ELISA, Anti-CD28 Fab signal in the presence of CD28 [1]: 0.08; Phage binding ELISA, Anti-CD28 Fab signal [2]: 1.63 |
| YCEGHTAEHMQKCL [Phage-932] | 0.05 | 1.64 | – | – | – |
| YCDGHDVEYMSKCL [Phage-936] | 0.05 | 1.64 | – | – | – |
| YCEGHVTEYMQKCL [Phage-949] | – | – | – | – | Phage binding ELISA, Anti-CD28 Fab signal in the presence of CD28 [1]: 0.08; Phage binding ELISA, Anti-CD28 Fab signal [2]: 1.62 |
| B11 | – | – | 0.07 | 1.65 | – |
| YCEGHDLIYMWKCL [Phage-938] | 0.06 | 1.63 | – | – | – |
| B12 | – | – | 0.07 | 1.66 | – |
